Results on five molecules are retold here after patent US20210198347A1 (Chugai, published 2021).

Assay [1] deals with T1, Native proenzyme human C1s (Comptech A103) (human, UniProt P09871 16-688).
T1 construct: mature; Bought native protein; also called native human C1s Proenzyme; native human C1s proenzyme protein (CompTech)
T1 sequence (looked up): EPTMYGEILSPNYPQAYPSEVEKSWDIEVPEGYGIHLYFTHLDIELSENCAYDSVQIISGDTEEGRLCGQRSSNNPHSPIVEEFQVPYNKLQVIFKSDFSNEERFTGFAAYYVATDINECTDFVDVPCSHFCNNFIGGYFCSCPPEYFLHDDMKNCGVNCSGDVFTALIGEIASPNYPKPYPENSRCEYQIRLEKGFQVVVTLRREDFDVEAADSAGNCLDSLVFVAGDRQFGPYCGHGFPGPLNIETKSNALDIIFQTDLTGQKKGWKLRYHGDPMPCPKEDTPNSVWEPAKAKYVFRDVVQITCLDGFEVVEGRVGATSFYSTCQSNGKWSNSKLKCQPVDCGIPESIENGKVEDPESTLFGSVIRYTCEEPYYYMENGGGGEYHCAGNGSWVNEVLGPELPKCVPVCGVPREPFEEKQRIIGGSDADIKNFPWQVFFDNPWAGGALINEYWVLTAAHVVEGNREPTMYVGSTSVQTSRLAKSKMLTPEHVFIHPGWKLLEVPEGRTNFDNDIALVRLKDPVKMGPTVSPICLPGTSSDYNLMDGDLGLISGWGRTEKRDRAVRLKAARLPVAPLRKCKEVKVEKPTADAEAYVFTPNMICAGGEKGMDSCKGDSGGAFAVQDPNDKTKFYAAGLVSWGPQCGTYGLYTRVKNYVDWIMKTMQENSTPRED
Briefly: SPR (BIACORE T200, 37 degrees C, pH 7.4), antibody captured by protein A/G, C1s 50 nM. As for the experimental part:
The binding specificities of the six C1s CUB1-EGF-CUB2 binders were determined at 37 degrees C. using BIACORE® T200 instrument (GE Healthcare). Recombinant Protein A/G (Pierce) was immobilized onto all flow cells of a CM4 sensor chip using an amine coupling kit (GE Healthcare). Antibodies and analytes were prepared in 7(+) buffer (20 mM ACES, 150 mM NaCl, 1.2 mM CaCl₂, 0.05% Tween 20, 0.005% NaN₃, pH 7.4). Each antibody was captured onto the sensor surface by protein A/G. Antibody capture levels were aimed at 100 resonance unit (RU). Native proenzyme human C1s (Comptech A103) (at 50 nM as a monomer) or recombinant human C1s CCP1-CCP2-SP-His (at 100 nM as a monomer) was injected, followed by dissociation. Sensor surface was regenerated each cycle with 10 mM Glycine-HCl pH 1.5. The six C1s CUB1-EGF-CUB2 binders bound to the native proenzyme human C1s, but not recombinant human C1s CCP1-CCP2-SP-His, which is a truncated protein lacking the CUB1-EGF-CUB2 domain.
In general terms: Surface plasmon resonance follows binding to a sensor surface in real time, without labels.

The target in assay [2] is T2, recombinant human C1s CCP1-CCP2-SP-His (human, UniProt P09871 292-688).
T2 construct: Truncated protein lacking the CUB1-EGF-CUB2 domain; also called human C1s CCP1-CCP2-SP M292-D688
T2 sequence: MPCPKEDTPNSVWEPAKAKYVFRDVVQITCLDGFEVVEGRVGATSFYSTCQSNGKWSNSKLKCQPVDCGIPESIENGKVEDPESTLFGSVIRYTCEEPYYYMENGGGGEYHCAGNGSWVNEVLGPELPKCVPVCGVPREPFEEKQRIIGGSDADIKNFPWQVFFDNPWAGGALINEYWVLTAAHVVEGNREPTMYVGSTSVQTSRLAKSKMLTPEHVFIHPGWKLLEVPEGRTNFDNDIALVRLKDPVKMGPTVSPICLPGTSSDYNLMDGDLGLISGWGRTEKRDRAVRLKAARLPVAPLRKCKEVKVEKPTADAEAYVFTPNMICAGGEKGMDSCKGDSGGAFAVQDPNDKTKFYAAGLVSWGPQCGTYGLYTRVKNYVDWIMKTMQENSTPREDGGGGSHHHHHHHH
Briefly: SPR (BIACORE T200, 37 degrees C, pH 7.4, 1.2 mM CaCl2), antibody captured by protein A/G.

B1: COS0499ee-SG1148 (antibody, human IgG1, kappa, V domains shown)
VH: QSLEESGGRLVTPGTPLTLTCTASGFSLSNYNMAWVRQAPGKGLEWIGIIETTTNTYYARWARGRFTISKTSSTTVDLQIASPTTEDTATYFCGRRVSNSHDLWGPGTLVTVSS
VL: AYDMTQTPASVSAAVGGTVTINCQASQTIGGWCAWYQQKPGQPPKLLIYKASTLASGVSSRFKGSGSGTEFALTISDLECDDAATYYCQHGYYTSSTIENTFGGGTKVEIKR
notes: also called COS499; COS499ee(-SG1148)
For B1, the binding result in assay [1] was “binds”; in assay [2] it was “no binding (tested: 100 nM)”.

B2: COS0631gg-SG1148 (antibody, human IgG1, kappa, V domains shown)
VH: QSVEESGGRLVTPGTPLTLTCTVSGFSLSRYSMGWVRQAPGKGLEWIGIIYADGGAYYASWAKGRFTISKTSTTMDLKVTSPTTEDTATYFCARGQFINSNEFFNPWGPGTLVTVSS
VL: QVLTQTASSVSAVVGGTVTINCQASQSLHNNKNLAWYQQKPGQPPRLLIYYASTLASGVSSRFKGSGSGTQFTLTISDLECDDAATYYCAGEFSCSNGDCNAFGGGTKVEIKR
With B2, the binding result in assay [1] was “binds”; in assay [2], “no binding (tested: 100 nM)”.

B3: COS0448oo-SG1148 (antibody, human IgG1, kappa, V domains shown)
VH: QSVEESGGRLVTPGTPLTLTCTVSGFSLSNYGMIWVRQAPGEGLEYIGFVSGSGSAYYANWVKGRFTISKTSTTVDLKMTSLTTEDTATYFCARGAYNTDSYSYSLYYGMDLWGPGTLVTVSS
VL: QIVMTQTPASVEVAVGGTVTIKCQASQSIYSYLSWYQQKPGQPPKLLIYGASTLASGVPSRFKGSRSGTEFTLTISDLECADAATYYCQSNYATTTTYGTFGGGTKVEIKR
notes: Rabbit B-cell derived variable regions; also called COS448; COS44800(-SG1148)
As to B3, the results for the binding result in assay [1] and in assay [2] were “binds” and “no binding (tested: 100 nM)”, respectively.

B4: COS0637cc-SG1148 (antibody, human IgG1, kappa, V domains shown)
VH: QSLEESGGRLVTPGTPLTLTCTASGFSLSAYAMNWVRQAPGKGLEWIGLIYGSGSTFYASWAKGRFTISKTSTTVDLKMTSLTTEDTATYFCARGRSVNYNSDFKLWGPGTLVTVSS
VL: QVLTQTPSSVSAAVGGTVTINCQASQSLHDKKNLAWYQHKPGQRPNLLIYGASTLESGVPSRFKGSGSGTEYTLTISDLECDDAAAYYCQGEFSCSSADCNTFGGGTKVEIKR
Turning to B4, the results for the binding result in assay [1] and in assay [2] were “binds” and “no binding (tested: 100 nM)”, respectively.

B5: COS0547gg-SG1148 (antibody, human IgG1, kappa, V domains shown)
VH: QSLEESGGRLVTPGTPLTLTCTASGFSLSSYHMDWVRQAPGKGLEWIGIITYTGDTYYATWAKGRFTISKTSSTTVDLKMASLTTEDTATYFCARRQYDAYNVWGPGTLVTVSS
VL: AYDMTQTPASVEVAVGGTVTIKCQASQSINNYLAWYQQKPGQPPKLLIYYASTLASGVPSRFKGSRSGTEFTLTISGVECADAATYYCQHGYYTSSNIDSVFGGGTKVEIKR
B5: the binding result in assay [1] is on record as “binds”; in assay [2], “no binding (tested: 100 nM)”.
